Experimental data as given in the DeepSol protein solubility set.

test: soluble on expression in E. coli; label from the status in PepcDB or PDB records

Sequence	soluble on expression in E. coli
SDFVITGGGIVGLATALRLQSLHPGARISVLEKEPAVARHQSGRNSGVIHAGVYYAPGSHKARFCARGVSSTRAFCDEHGIPYRICGKLIVATDAAELERMGTLETRARANGIVIERLSGEEARRLEPNIKAVGALLSPTTGIVDYGRVAERMAELFRDRGGEIRLDTEVTGGAESEAGVRLETTAGEISAGKAVFCGGLHADRLARAFGASLDFRIVPFRGEYFAIKNQPEDLVQHLIYPVPDPARPFLGVHLTRKMNGGFTVGPN	not soluble
MSDGERVLKIPVEYFEDGWKKGEAVITKDAISFAGKTIRFKEIQDLERLKHEGRDAIRIKKDADYFIDFGSRQAQIFRYLAFNLKSDRFAVYFLSPATRGGVVVSDSKWEKGYLSITDEALWFLSSSKQIRISIQNLGSVEKDIRTVGKKQRVVLVVTHVENGEVITSFVLCPETTMDMLQEYIQNFIEKSKPKEKLSEVEEQILTMVYTGVDSVSVESILGVTTEELNKMYDRLVNLGLARVVKIRKEIELTPRGVALVSEIMKKAAR	not soluble
MAHHHHHHMAVSSARESVTDLLSGREDVRTVSSSTMAQESTTIKTGELGEDGGGDGVISDRSNVLARVFEELLDAEVSMNPAKLREASRAGIPSLYRSTVYRYLLGITFVDHSREMSLERMQEKDFEQLLTAFGRIVASDGTGQRPSVKGRIMQPLASPRLHDSETIPLITRDESQFANGYRCSDRSFSVGYAAWIKFRANLRYLPRFVGNPERRQRMECAWQALHVTSSGATPDEVENLFELALVFESVHGTARDIYFSTSSLYYLLTHHGNVLQNAQCLQRMCGTFLMLFRATNFDLYRHFVAESVTAVEWLPGMLKTLLAGRLHEEDLLRLWDVYLADALEYLGFPLHPYVCLAILEEMTEVLLECEKSGIIERLRHLPRIEAGSIIQKAISLKESVFSKDLL	not soluble
TRAFQEGSYSSNIKNAAKFYTGLIQLQNPEFGDSSSIDDALPQTDTFISASRANSNIDVILPRVESFALAAKGERSKGVMVLGVDPESENAYSHISDKLVQGEFIASGQNAVLVGGGLAQYLRLKIGDELVLYGAGYRGQTAAGLYRVAGILHFPLQQLDSQLVYMPLDTAQTLYSLDKQVTAWVLNTSNLRVLPSVIEQLKRDYGNSVAVKGWQELSPELSQQIALDKAG	not soluble
TQQPIVTGTSVISMKYDNGVIIAADNLGSYGSLLRFNGVERLIPVGDNTVVGISGDISDMQHIERLLKDLVTENAYDNPLADAEEALEPSYIFEYLATVMYQRRSKMNPLWNAIIVAGVQSNGDQFLRYVNLLGVTYSSPTLATGFGAHMANPLLRKVVDRESDIPKTTVQVAEEAIVNAMRVLYYRDARSSRNFSLAIIDKNTGLTFKKNLQVENMKWDFAKDIKGYGTQKI	soluble
MGHHHHHHSHMLQPPKIVAELSANHNQDLNLAKESLHAIKESGADFVKLQTYTPSCMTLNSKEDPFIIQGTLWDKENLYELYQKASTPLEWHAELFELARKLDLGIFSSPFSSQALELLESLNCPMYKIASFEIVDLDLIEKAARTQKPIILSSGIATHTELQDAISLCRRVNNFDITLLKCVSAYPSKIEDANLLSMVKLGEIFGVKFGLSDHTIGSLCPILATTLGASMIEKHFILNKSLQTPDSAFSMDFNGFKSMVEAIKQSVLALGEEEPRINPKTLEKRRFFARSLFVIKDIQKGEALTENNIKALRPNLGLHPKFYKEILGQKASKFLKANTPLSADDIERSL	soluble
MNEADMLFSVTVPGSTANLGPGFDSVGMALSRYLKLTVFESDKWSFEAETETVAGIPAGTDNLIYQVAKRTADLYGKEMPPVHVKVWSDIPLARGLGSSAAAIVAAIELADELCGLKLSEADKLHLASLEEGHPDNAGASLVGGLVIGLHEDDETQMIRVPNADIDVVVVIPFYEVLTRDARDVLPKEFPYADAVKASAVSNILIAAIMSKDWPLVGKIMKKDMFHQPYRAMLVPELSKVEHVAEMKGAYGTALSGAGPTILVMTEKGKGEELKEQLALHFPHCEVDALTVPKEGSIIERNPLYQVKSV	not soluble
MKAANSGRTAAALECFERVVKLQSTPVNWSYLAFCVARERQQFEHATRLCEEAVRREPRSSVLYLNLGKVYLLSGRKDDAIRTFRQGLLYERNTLIESELRRLGLRKPPVLNFLAREHPVNKYLGIMLKKLKIRLEHHHHHH	not soluble
MSPEDAITRAELLRRREAGEVTLVDVRPHEEYQAGHIPGAINIPIAELADRLAELAGDRDIVAYCRGAYCVMAPDAVRIARDAGREVKRLDDGMLEWRLAGLPVDEGALEHHHHHH	not soluble
MGSDKIHHHHHHMDTFHLMKVYIAVAEEQGFSAASRRLNMSAPTVTRAVAHLEETLKVKLLNRTTRYVRMTEAGARYLEDAKRILHDVKVANEAALGINATPQGKISVTAPVLFGQQFVLPTITDYLVRYPQTQVNAVFLDRVVNLLEEGHDVGIRIGELHDSSMRAKKVGNVRLILVASPEYLAKNGIPKNCQELAQHTLIAANTGSLNPDWQFLVNKKNQTIKINPRLTVTTNQAAINAAKNGLGITRIISYQVAEELKNNKLKILLENFEYPAKPINIVHREDKFSSAKVRSFIDLLAENLQTNSALN	not soluble
MAYIQLEPLNEGFLSRISGLLLCRWTCRHCCQKCYESSCCQSSEDEVEILGPFPAQTPPWLMASRSSDKDGDSVHTASEVPLTPRTNSPDGRRSSSDTSKSTYSLTRRISSLESRRPSSPLIDIKPIEFGVLSAKKEPIQPSVLRRTYNPDDYFRKFEPHLYSLDSNSDDVDSLTDEEILSKYQLGMLHFSTQYDLLHNHLTVRVIEARDLPPPISHDGSRQDMAHSNPYVKICLLPDQKNSKQTGVKRKTQKPVFEERYTFEIPFLEAQRRTLLLTVVDFDKFSRHCVIGKVSVPLCEVDLVKGGHWWKALIPSSQNEVELGELLLSLNYLPSAGRLNVDVIRAKQLLQTDVSQGSDPFVKIQLVHGLKLVKTKKTSFLRGTIDPFYNESFSFKVPQEELENASLVFTVFGHNMKSSNDFIGRIVIGQYSSGPSETNHWRRMLNTHRTAVEQWHSLRSRAECDRVSPASLEVT	soluble
MGSDKIHHHHHHMNAWEVNFDGLVGLTHHYAGLSFGNEASTRHRFQVSNPRLAAKQGLLKMKALADAGFPQAVIPPHERPFIPVLRQLGFSGSDEQVLEKVARQAPHWLSSVSSASPMWVANAATIAPSADTLDGKVHLTVANLNNKFHRSLEAPVTESLLKAIFNDEEKFSVHSALPQVALLGDEGAANHNRLGGHYGEPGMQLFVYGREEGNDTRPSRYPARQTREASEAVARLNQVNPQQVIFAQQNPDVIDQGVFHNDVIAVSNRQVLFCHQQAFARQSQLLANLRARVNGFMAIEVPATQVSVSDTVSTYLFNSQLLSRDDGSMMLVLPQECREHAGVWGYLNELLAADNPISELKVFDLRESMANGGGPACLRLRVVLTEEERRAVNPAVMMNDTLFNALNDWVDRYYRDRLTAADLADPQLLREGREALDVLSQLLNLGSVYPFQREGGGNG	not soluble
MGLGRVITRSLSSVEPALSQKLTIQPAIERSPTDLLNALSETVGPDTTAPHFAYIDDPITIPSTQSTKKTYFMAKEFGKRAARELATEWPTLFAFDRDQPQLPVFRPRHLADPLQVEPTENNLLKMISSREVKDSCILYERMRSENVDVSEKVQLELFRLVTYYNSSNVPFAEWEEFVGMRNFGEDSTSSWKSGAVADLLFETLPKTDETVSIMIAGLCKFSDHSSLERARELYKEHRAAKGKVYREAFNGLIGASSYSVGKKLVAEMISLRMTPDIFTFNALLSSAAKAGKFEDRVKAFTEIIGEMKEIGVEPALSSFHLIIKNIIDFKLLDNEKRESDEQKKTYNHQLTVAISWLNEIQNSLTGKTLKPITSTCNLFFVEAMGIHYRAANENLAENLVSIYESKANEVKMPAFTIESMFYNRQLQLAVEQSASLNRIYDLYTTMVPRLVGVNNYLSSLVFRKLAASSDRHWPLLRRVIIDGIAAGQMNGVIGEEMRKQLCNVQLHTLGTSEREQFTSLVQKLVAVWVEFSQFTEERMRRLQRKLSPSQISECALLLTRIGEQQKAYELLDLLLDETASSGDEATVYPRGHARPWAMAELFEDALRKRDTYAAATCLQIMSLTANRAKLEPLANRIFEKCNVNQEQVRIIQGFIRLRPQ	not soluble
MSLGYDHPEILLNFKKDADIWDMMLNTNYMKTCREVVFEYLGVKNGDTVLEVGCGSRSPVYFASKVAPNGAYTGVDISKKLIRVAEGRLKRSGVECVNLKSMDFSETITKYKHDYVLCIHTLSYAHSMKLFLKKMMESLRKGGKLLIMEEFFTENINTNAELFEFYNHLNKYFKNYVSRTEILKEIEMLGYDFKYELLGNNCIVVERIEGHHHHHH	not soluble
IPELKDHLRIFRPRKLTLKGYRQHWVVFKETTLSYYKSQDEAPGDPIQQLNLKGCEVVPDVNVSGQKFCIKLLVPSPEGMSEIYLRCQDEQQYARWMAGCRLASKGRTMADSSYTSEVQAILAFLSLQRT	soluble
LQERELAKAAQEAEKKGEAFPDVPVTLYEAIVRDYTGRTPEAREQTLIVTHLNEDRRVLNSMIQDALAKPGEQQVTVPVLTTANIRDGELRRLSTWEAHPGALALVDNVYHRIAGISKEDGLITLEDKAGNTRLISPREAAAEGVTLYNPETIRVGAGDRMRFTKSDRERGYVANSVWTVTAVSGDSVTLSDGKQTRVVRPGQDRAEQHIDLAYAITAHSAQGASETFAIALEGTEGGRKQMAGFESAYVALSRMKQHVQVYTDDRQGWVKAINSAEQKGTAHDVLEPKSEREMMNAERLFSTARELRDVAAGRAVLRNAGLAQGDSRARFIAPGRKYPQPYVALPAFDRNGKSAGIWLNPLTTDDGAGLRGFTGEGRVKGSEEAQFVALQGSRNGESLLAGSMQDGVRIARENPDSGVVVRIVGDGRPWNPVAITGGRVWGDIPDSNVQPGAGNGEPVTAEILAQRQAEEAVRRETERRADEIVRKMAEDKSDLPEEKTAQAVREIAGQEQDRMTPPEREPPLPESVLREPQRER	not soluble
GMLELVGEYWEQLKITVVPVVAAAEDDDNEQHEEKAAEGEEKEEENGDEDEDEDEDEDDDDDDDEDEEEEEEVTDQLEDLREHFKNTEEGKALVHHYEECAERVKIQQQQPGYADLEHKEDCVEEFFHLQHYLDTATAPRLFDKLK	soluble
MFSISLLSCLFLGTVPALAQTGGERRLSPEKSEIWGPGLKAHVVLPVRYFYIRAVDTSGEQFTSSPGEKVFQVKISAPDEQFTRVGVQVLDRKDGSFIVRYRMYASYRNLKIEVKHHGQHVAESPYVLRGPVYHENCDCPLEDSAAWLREMNCSETISQIQKDLAHFPTVDPEKIAAEIPKRFGQRQSLCHYTLKDNKVYIKTHGEHVGFRIFMDAILLSLTRKVRMPDVEFFVNLGDWPLEKKKSNSNIQPIFSWCGSTESRDIVMPTYDLTDSVLETMGRVSLDMMSVQANTGPPWESKNSTAVWRGRDSRKERLELVKLSRKHPELIDAAFTNFFFFKHDESLYGPIVKHISFFDFFKHKYQINIDGTVAAYRLPYLLVGDSVVLKQDSIYYEHFYNELQPWKHYIPVKSNLSDLLEKLKWAKEHDAEAKKIAKAGQEFARNNLMGDDIFCYYFKLFQGYANLQVSEPQIREGMKRVEPQSEDDLFPCTCHRRKAKDEL	soluble
MGSDKIHHHHHHMHRLPPLRAIQVFDSVARNQSFSIAASQLAITQGAVSKQVKLLEEFYAEKLFIRCGTNIELTKKGTWLAYQLTPIFDQLNGICNFNSISRGKIRIATYPSLSLGYLTYEIEQFNSAHPNIDVEIILAINHPTMCDEIADLFITTEESIDGYHYQQLFQERLIPVISPKIINDTTIIKIKDLTGYTLLVTNGKENSDWQLWFNHHNLKPAIYQKMNMFSDALLSTRAAELGNGIALSCEVTAHRDIIDGRLCKVGLPSAPTGRRYFLCCKNRRRYEPNIKLLSDWINKKFIND	not soluble
